Data on 49 substances can be found in patent US20250163127A1.

Where two headings read alike, the source gives them in different places.

The target of test [1] is CD28 (human) (UniProt P10747). Put plainly: flow cytometry, Jurkat cells (CD28). Background: Flow cytometry measures light scatter and fluorescence of single cells or particles in a stream.
Test [2] concerns the target CTLA4 (human). In words: flow cytometry, CHO cells stably expressing CTLA4.
For test [3], the target named is PD-L1 (human). In words: flow cytometry, CHO cells stably expressing PD-L1.
Target sequence in this assay (chain, as listed by the source): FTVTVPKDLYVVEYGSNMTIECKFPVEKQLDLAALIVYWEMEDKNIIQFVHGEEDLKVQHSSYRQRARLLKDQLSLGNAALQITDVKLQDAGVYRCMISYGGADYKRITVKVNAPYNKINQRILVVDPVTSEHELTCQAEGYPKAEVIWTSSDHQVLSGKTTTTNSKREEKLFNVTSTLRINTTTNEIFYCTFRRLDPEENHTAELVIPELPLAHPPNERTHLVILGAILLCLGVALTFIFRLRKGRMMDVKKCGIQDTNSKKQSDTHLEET
Test [4] addresses T1, CD226 (human) (UniProt Q15762).
T1 sequence: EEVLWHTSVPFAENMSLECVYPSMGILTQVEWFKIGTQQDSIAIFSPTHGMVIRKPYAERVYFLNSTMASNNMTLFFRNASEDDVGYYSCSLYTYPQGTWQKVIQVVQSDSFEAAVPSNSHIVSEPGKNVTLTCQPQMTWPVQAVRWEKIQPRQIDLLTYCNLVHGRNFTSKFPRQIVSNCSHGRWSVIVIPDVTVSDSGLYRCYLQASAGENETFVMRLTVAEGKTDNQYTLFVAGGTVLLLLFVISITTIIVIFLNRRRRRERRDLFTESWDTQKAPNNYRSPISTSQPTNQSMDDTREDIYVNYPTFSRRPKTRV
In words: flow cytometry, Fc fusion on Expi293 cells transfected with full-length human CD226.

Test [5] addresses CD80 (human). Put plainly: flow cytometry, cells expressing CD80, 20 nM.
Test [6] addresses CD80 (human) (UniProt P33681). Put plainly: flow cytometry, cells expressing the partner.
Test [7] addresses CD86 (human) (UniProt P42081). In words: flow cytometry, cells expressing the partner.
For test [8], the target named is T2, ICOSL (human) (UniProt O75144).
T2 sequence: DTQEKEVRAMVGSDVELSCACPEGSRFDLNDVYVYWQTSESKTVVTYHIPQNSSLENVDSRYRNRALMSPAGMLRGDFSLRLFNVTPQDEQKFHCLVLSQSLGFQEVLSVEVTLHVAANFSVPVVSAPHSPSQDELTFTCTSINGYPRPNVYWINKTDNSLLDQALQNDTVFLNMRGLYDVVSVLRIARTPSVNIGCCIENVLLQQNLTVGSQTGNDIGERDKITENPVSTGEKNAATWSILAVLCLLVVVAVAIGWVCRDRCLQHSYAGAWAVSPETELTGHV
In words: flow cytometry, cells expressing the partner.

Test [9] has as its target CD28, full-length, expressed on transfected cells (Homo sapiens (Human)) (UniProt P10747). In words: flow cytometry, cells expressing target.
Test [10] has as its target CTLA-4 (Homo sapiens (Human)) (UniProt P16410). In words: flow cytometry, transfected cells.
The target in test [11] is ICOS (Homo sapiens (Human)) (UniProt Q9Y6W8). Put plainly: flow cytometry, transfected cells.
ICOS (Homo sapiens (Human)), sequence (Q9Y6W8 21-199 limits assumed): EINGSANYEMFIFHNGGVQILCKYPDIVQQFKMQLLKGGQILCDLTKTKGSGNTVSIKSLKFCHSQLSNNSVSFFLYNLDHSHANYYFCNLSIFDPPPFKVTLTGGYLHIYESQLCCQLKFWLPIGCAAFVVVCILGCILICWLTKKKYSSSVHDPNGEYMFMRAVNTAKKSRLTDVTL
In test [12] the target is CD28 (human) (UniProt P10747). Put plainly: flow cytometry, transfected cells.
The target in test [13] is CD28 (human) (UniProt P10747). Put plainly: flow cytometry, Jurkat cells (CD28). This is another data set of the same source.
Test [14] deals with PD-L1 (human). In words: flow cytometry, CHO cells expressing PD-L1.
The target in test [15] is PD-L1 (human). In words: flow cytometry, cells expressing PD-L1.
The target of test [16] is CTLA-4 (human). Put plainly: flow cytometry, cells expressing CTLA-4.
Test [17] addresses CD28 (human) (UniProt P10747). In words: flow cytometry, cells expressing CD28.
In test [18] the target is T3, human ICOSL (human).
T3 sequence: T2 sequence
In words: flow cytometry, cells expressing human ICOSL.

CTLA-4 (Homo sapiens (Human)), sequence (P16410 36-223): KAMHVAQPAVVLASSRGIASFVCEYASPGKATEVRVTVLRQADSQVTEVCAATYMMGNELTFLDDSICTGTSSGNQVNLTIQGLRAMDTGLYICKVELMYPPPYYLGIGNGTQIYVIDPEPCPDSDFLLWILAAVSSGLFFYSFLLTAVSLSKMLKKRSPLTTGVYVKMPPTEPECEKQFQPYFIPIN
CTLA4 (human), sequence (chain, as listed by the source): as the sequence (P16410 36-223) above
WT CD80 ECD-Fc (R&D) (Fc fusion), sequence (chain): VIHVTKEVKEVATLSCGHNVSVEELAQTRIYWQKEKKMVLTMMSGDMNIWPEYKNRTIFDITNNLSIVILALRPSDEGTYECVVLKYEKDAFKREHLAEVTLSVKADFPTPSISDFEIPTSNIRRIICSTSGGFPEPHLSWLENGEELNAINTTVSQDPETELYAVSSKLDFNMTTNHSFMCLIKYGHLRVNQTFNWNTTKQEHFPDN
CD80 (human) (UniProt P33681), sequence (P33681 35-288): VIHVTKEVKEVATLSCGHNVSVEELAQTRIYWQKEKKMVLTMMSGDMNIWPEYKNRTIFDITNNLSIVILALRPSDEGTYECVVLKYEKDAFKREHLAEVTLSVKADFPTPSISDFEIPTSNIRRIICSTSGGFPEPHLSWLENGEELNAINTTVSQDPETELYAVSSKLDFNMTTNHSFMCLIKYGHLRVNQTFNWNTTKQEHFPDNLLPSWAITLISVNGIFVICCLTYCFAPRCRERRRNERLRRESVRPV
CD80 (human), sequence (chain, as listed by the source): as the sequence (P33681 35-288) above
CTLA4-Fc, sequence (P16410 37-162 limits assumed): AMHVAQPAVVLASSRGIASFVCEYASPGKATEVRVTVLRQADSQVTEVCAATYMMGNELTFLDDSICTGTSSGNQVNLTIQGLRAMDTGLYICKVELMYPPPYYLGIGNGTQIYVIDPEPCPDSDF

As for “CD80 variant A26E/E35D/M43I/M47L/L85Q/K86E/R94W IgV-Fc (Fc fusion)”, the results for the MFI at 33.3 nM in test [1] and in test [2] were 314 MFI and 2950 MFI, respectively.
As to “CD80 variant E24D/Q33L/E35D/M47V/K54R/L85Q IgV-Fc (Fc fusion)”, the MFI at 33.3 nM stood at 311000 MFI in [2] and 67100 MFI in test [3].
Regarding “CD80 variant E35D/D46V/M47I/A71G/F92V IgV-Fc (Fc fusion)”, the MFI at 33.3 nM in test [1] stood at 7540 MFI.
In the case of “CD80 variant E35D/M47I/K54R/L85E IgV-Fc (Fc fusion)”, the MFI at 33.3 nM is 8660 MFI in test [2] and 36900 MFI in test [3].
As for “CD80 variant E35D/M47L/A71G/L97Q IgV-Fc (Fc fusion)”, the values for the MFI at 33.3 nM in [1] and in test [2] were 300 MFI and 226000 MFI, respectively.
For the substance “CD80 variant E35D/M47V/T62A/A71G/V83A/Y87H/L97M IgV-Fc (Fc fusion)”, the MFI at 33.3 nM is 305 MFI in [1], 18100 MFI in test [2] and 77500 MFI in test [3].
Turning to “CD80 variant Q27H/E35D/M47L/L85Q/R94Q/E95K IgV-Fc (Fc fusion)”, the MFI at 33.3 nM in test [1] is 282 MFI; in test [3] it was 36100 MFI.
As to “CD80 variant Q33L/E35D/M47V IgV-Fc (Fc fusion)”, the MFI at 33.3 nM in test [2] is 47600 MFI; in [3], 47900 MFI.
With “CD80 variant Q33L/E35D/M47V/T79A IgV-Fc (Fc fusion)”, the MFI at 33.3 nM in test [2] came to 28900 MFI; in [3], 62100 MFI.
Take “CD80 variant Q33R/E35D/D46E/M47I IgV-Fc (Fc fusion)”: the MFI at 33.3 nM in [1] amounted to 303 MFI; in test [2] it was 3560 MFI.
For “CD80 variant Q33R/E35D/K37E/M47V/L85Q IgV-Fc (Fc fusion)”, the results for the MFI at 33.3 nM in test [1] and in test [3] were 258 MFI and 44400 MFI, respectively.
As to “CD80 variant S15P/Q33L/E35D/M47L/L85Q IgV-Fc (Fc fusion)”, the MFI at 33.3 nM in test [1] was determined as 266 MFI.
As to CD112 A112V (Fc fusion), the MFI in [4] was 152000 MFI.
The substance “CTLA4-Fc (from UniProt P16410) (Fc fusion)” yielded an MFI at 20 nM in test [5] of 200000 MFI.
On to CTLA-4 ECD-Fc L12P/A26T (Fc fusion), for which the MFI in test [6] was 1024 MFI; in test [7] it was 276000 MFI; in test [8], 928 MFI. The MFI ratio to WT (ΔWT) in [7] worked out at 0.4 fold.
For “CTLA-4 ECD-Fc L12P/A26T/L63P (Fc fusion)”, the MFI is 2400 MFI in test [6], 500000 MFI in test [7] and 891 MFI in [8].
For “CTLA-4 ECD-Fc L12P/A26T/L63P/L98Q/Y105L (Fc fusion)”, the results for the MFI in test [6], in test [7] and in [8] were 829 MFI, 762000 MFI and 873 MFI, respectively.
CTLA-4 ECD-Fc L63P (Fc fusion): the MFI came out at 3930 MFI in [6], 596000 MFI in test [7] and 966 MFI in test [8].
With “CTLA-4 ECD-Fc L63P/L98Q/Y105L (Fc fusion)”, the MFI was determined as 4720 MFI in [6], 411000 MFI in [7] and 1800 MFI in [8].
For CTLA-4 ECD-Fc L98Q/Y105L (Fc fusion), in that order: 3860 MFI, 685000 MFI and 1190 MFI.
Regarding CTLA-4 ECD-Fc L98R/N110K (Fc fusion), the results for the MFI in test [6] and in test [7] were 2110 MFI and 665000 MFI, respectively.
Take “ICOSL ECD-Fc N30D/N52S/L67P/Q100K/D217G/R221K/T225S (Fc fusion)”: the MFI in test [9] was 1990 MFI.
Consider “ICOSL ECD-Fc N52H/N57Y/Q100R/F172S (Fc fusion)”, for which the MFI in test [10] turned out to be 606000 MFI; in test [11], 238000 MFI.
Turning to ICOSL ECD-Fc N52S/E90A (Fc fusion), the MFI in test [9] was 31100 MFI.
In test [9], ICOSL ECD-Fc N52S/T113E (Fc fusion) displayed an MFI of 54 MFI.
For the substance ICOSL-Fc N52G/Q100A (Fc fusion), the MFI was 98700 MFI in [12] and 303000 MFI in test [11].
ICOSL-Fc N52H/N57Y/Q100K (Fc fusion): the MFI in [12] is 142000 MFI; in test [11] it was 214000 MFI.
ICOSL-Fc N52H/N57Y/Q100R (Fc fusion): the MFI in test [12] is 142000 MFI; in test [10], 817000 MFI; in [11], 200000 MFI. The MFI ratio to WT (ΔWT) came out at 6.4 fold in [12], 2.47 fold in [10] and 0.94 fold in [11].
In the case of WT CD80 ECD-Fc (R&D) (Fc fusion), the MFI at 33.3 nM in test [1] is 7630 MFI; in [13], 18000 MFI; in test [14], 11900 MFI; in [3], 7940 MFI.
In the case of variant CD80 A91G (Fc fusion), the MFI in test [15] was determined as 85 MFI; in [16], 200 MFI.
As for variant CD80 A91G/S103P (Fc fusion), the MFI in test [17] is 39 MFI; in test [15] it was 9 MFI.
On to “variant CD80 E24G/L25P/L70Q/A91G/I118V/T120S/N152T (Fc fusion)”, for which the MFI in [17] stood at 26 MFI; in test [16] it was 38 MFI.
Regarding “variant CD80 I67T/L70Q/A91G/I118V/T120S (Fc fusion)”, the results for the MFI in test [17], in [15] and in [16] were 98 MFI, 5 MFI and 160 MFI, respectively. Further, the results for the parental ratio in [17], in [15] and in [16] were 1.03, 0.08 and 0.77, respectively.
variant CD80 K89E/T130A (Fc fusion) came in with an MFI in test [16] of 148 MFI.
For “variant CD80 L65H/D90G/T110A/F116L (Fc fusion)”, the MFI in [17] turned out to be 33 MFI; in [16], 121 MFI.
Turning to “variant CD80 M38T/L70Q/E77G/A91G/I118V/T120S/T130A/N152T (Fc fusion)”, the MFI in test [17] was 61 MFI.
The substance “variant CD80 M38V/T41D/M43I/W50G/D76G/V83A/K89E/I118V/T120S/I126V/T130A (Fc fusion)” gave an MFI in test [17] of 5 MFI.
Take “variant CD80 R29H/E52G/D90N/I118V/T120S/T130A (Fc fusion)”: the MFI is 66 MFI in test [17] and 141 MFI in test [16].
Consider “variant CD80 R29H/E52G/L70R/E88G/A91G/T130A (Fc fusion)”, for which the MFI in test [17] came out at 100 MFI; in test [15] it was 5 MFI; in test [16], 119 MFI. Also, the parental ratio was 0.08 in [15] and 0.57 in [16].
“variant CD80 T28S/L70Q/A91G/E95K/I118V/T120S/I126V/T130A/K169E (Fc fusion)”: the figures for the MFI in test [17], in test [15] and in [16] were 32 MFI, 6 MFI and 65 MFI, respectively. Moreover, the parental ratio in test [17] was 0.34; in test [15] it was 0.08; in [16], 0.31.
Consider “variant CD80 V20L/L70Q/A91S/I118V/T120S/T130A (Fc fusion)”, for which the MFI in [17] came out at 105 MFI; in test [15] it was 9 MFI; in [16] it was 200 MFI. For the same substance, the parental ratio is 0.13 in test [15] and 0.96 in [16].
In test [18], “variant CTLA-4 ECD-Fc G29W/L98Q/Y105L (Fc fusion)” displayed an MFI of 570 MFI.
As to “variant CTLA-4 ECD-Fc G29W/M56T/L98Q/Y105L (Fc fusion)”, the MFI in test [18] was found to be 612 MFI.
Regarding “variant CTLA-4 ECD-Fc G29W/M56T/S72G/L98Q/Y105L (Fc fusion)”, the MFI in test [18] is 534 MFI.
Regarding “variant CTLA-4 ECD-Fc L12F/R16H/G29W/L98Q/Y105L (Fc fusion)”, the MFI in [18] was determined as 862 MFI.
In test [18], “variant CTLA-4 ECD-Fc L12F/R16H/G29W/M56T/S72G/L98Q/Y105L (Fc fusion)” had an MFI of 613 MFI.
For the substance “variant CTLA-4 ECD-Fc M56T/L98Q/Y105L (Fc fusion)”, in [18], the MFI was 700 MFI.
variant PD-L1 G15A/V129D Fc fusion: in test [5], the MFI at 20 nM was found to be 128 MFI.
The same measure, in the same setting: next, variant PD-L1 V93E/V129D Fc fusion: 150 MFI.
